From article PMC11621567 (Nature Communications, 2024)
Where two headings read alike, the source gives them in different places.

B1: human GPR156 EM (residues 1–346), apo (receptor)
chain: MEPEINCSELCDSFPGQELDRRPLHDLCKTTITSSHHSSKTISSLSPVLLGIVWTFLSCGLLLILFFLAFTIHCRKNRIVKMSSPNLNIVTLLGSCLTYSSAYLFGIQDVLVGSSMETLIQTRLSMLCIGTSLVFGPILGKSWRLYKVFTQRVPDKRVIIKDLQLLGLVAALLMADVILLMTWVLTDPIQCLQILSVSMTVTGKDVSCTSTSTHFCASRYSDVWIALIWGCKGLLLLYGAYLAGLTGHVSSPPVNQSLTIMVGVNLLVLAAGLLFVVTRYLHSWPNLVFGLTSGGIFVCTTTINCFIFIPQLKQWKAFEEENQTIRRMAKYFSTPNKSFHTQYGEE
B2: human GPR156 EM (residues 1–346) in the GPR156–Gi3 complex (receptor)
chain: MEPEINCSELCDSFPGQELDRRPLHDLCKTTITSSHHSSKTISSLSPVLLGIVWTFLSCGLLLILFFLAFTIHCRKNRIVKMSSPNLNIVTLLGSCLTYSSAYLFGIQDVLVGSSMETLIQTRLSMLCIGTSLVFGPILGKSWRLYKVFTQRVPDKRVIIKDLQLLGLVAALLMADVILLMTWVLTDPIQCLQILSVSMTVTGKDVSCTSTSTHFCASRYSDVWIALIWGCKGLLLLYGAYLAGLTGHVSSPPVNQSLTIMVGVNLLVLAAGLLFVVTRYLHSWPNLVFGLTSGGIFVCTTTINCFIFIPQLKQWKAFEEENQTIRRMAKYFSTPNKSFHTQYGEE

Columns and labels:
cryo-EM structure [1] = target: the molecule itself; assay: cryo-EM structure
cryo-EM structure [2] = target: the molecule itself; assay: cryo-EM structure; remark: listed apart in the source

Row | Protein | stoichiometry N (cryo-EM structure [1]) | stoichiometry N (cryo-EM structure [2])
1 | B1 | 2 | 
2 | B2 |  | 2
